Data published in publication PMC2597217.

Legend:
[1] = target: FoxO1 DBD S249E (human, UniProt Q12778 151-266, S249E); test: EMSA
[2] = target: FoxO1 DBD A207C (human, UniProt Q12778 151-266, A207C); test: crystal structure
[3] = target: FoxO1 DBD S184C (human, UniProt Q12778 151-266, S184C); test: crystal structure
FoxO1 DBD S184C, sequence (Q12778 151-266 S184C): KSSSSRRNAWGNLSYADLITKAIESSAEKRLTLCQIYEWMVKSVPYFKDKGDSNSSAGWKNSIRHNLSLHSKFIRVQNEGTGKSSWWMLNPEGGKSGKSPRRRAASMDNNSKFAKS

FoxO1 DBD S249E, sequence (Q12778 151-266 S249E): as the sequence (Q12778 151-266 S184C) above, with C34S, S99E counted along it
FoxO1 DBD A207C, sequence (Q12778 151-266 A207C): as the sequence (Q12778 151-266 S184C) above, with C34S, A57C counted along it

B1: DBE2 (dsDNA)
DNA 1: TCTTGTTTACATTTTG
DNA 2: CAAAATGTAAACAAGA
B1: binds [1].

B2: IRE (dsDNA)
DNA 1: TGGTTTGTTTTGCTTG
DNA 2: CAAGCAAAACAAACCA
B2: binds [1]; binds [2]; binds [3].
